Experimental data taken from PMC9536601 (2022).

Biological target: T1, Ad5 hexon, on wild-type human adenovirus type 5 virions (human adenovirus type 5, UniProt P04133 2-952)
T1 chain: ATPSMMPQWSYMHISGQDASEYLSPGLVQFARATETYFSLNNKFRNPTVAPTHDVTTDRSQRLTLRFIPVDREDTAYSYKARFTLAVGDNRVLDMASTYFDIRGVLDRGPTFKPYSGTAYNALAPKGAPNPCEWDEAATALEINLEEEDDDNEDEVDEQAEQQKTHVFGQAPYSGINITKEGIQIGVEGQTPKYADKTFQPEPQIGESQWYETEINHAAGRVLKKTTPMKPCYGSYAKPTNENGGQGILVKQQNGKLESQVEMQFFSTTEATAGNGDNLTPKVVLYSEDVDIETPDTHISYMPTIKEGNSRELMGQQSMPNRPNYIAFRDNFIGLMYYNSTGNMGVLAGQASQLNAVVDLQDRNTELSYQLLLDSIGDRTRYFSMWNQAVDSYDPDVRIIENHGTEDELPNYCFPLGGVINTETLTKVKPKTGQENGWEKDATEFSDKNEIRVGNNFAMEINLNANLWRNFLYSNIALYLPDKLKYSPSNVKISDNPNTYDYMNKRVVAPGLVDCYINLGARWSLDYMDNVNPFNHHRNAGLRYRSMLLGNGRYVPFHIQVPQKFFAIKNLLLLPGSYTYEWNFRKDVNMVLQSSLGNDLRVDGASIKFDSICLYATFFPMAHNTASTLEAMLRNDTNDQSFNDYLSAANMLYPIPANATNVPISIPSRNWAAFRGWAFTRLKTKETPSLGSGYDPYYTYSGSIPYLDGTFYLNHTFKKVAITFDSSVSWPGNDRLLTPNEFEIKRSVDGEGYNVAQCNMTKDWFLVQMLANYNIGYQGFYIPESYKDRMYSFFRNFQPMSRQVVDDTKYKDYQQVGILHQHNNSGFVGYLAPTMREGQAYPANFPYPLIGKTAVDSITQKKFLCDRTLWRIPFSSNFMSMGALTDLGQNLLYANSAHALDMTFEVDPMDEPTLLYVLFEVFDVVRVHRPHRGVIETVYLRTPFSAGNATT
Assay: SPR

B1: mouse coagulation factor X (natural protein)
chain 1: ANSFFEEFKKGNLERECMEEICSYEEVREIFEDDEKTKEYWTKYKDGDQCESSPCQNQGACRDGIGGYTCTCSEGFEGKNCELFVRKLCRLDNGDCDQFCREEQNSVVCSCASGYFLGNDGKSCISTAPFPCGKITTGRR
chain 2: VALNTSDSELDLEDALLDEDFLSPTENPIELLNLNETQPERSSDDLVRIVGGRECKDGECPWQALLINEDNEGFCGGTILNEFYILTAAHCLHQARRFKVRVGDRNTEKEEGNEMVHEVDVVIKHNKFQRDTYDYDIAVLRLKTPITFRMNVAPACLPQKDWAESTLMTQKTGIVSGFGRTHEKGRQSNILKMLEVPYVDRNTCKLSTSFSITQNMFCAGYEAKLEDACQGDSGGPHVTRFKNTYYVTGIVSWGEGCARKGKYGIYTKVTTFLKWIDRSMKARVGPTAETPRTAGPPN
modifications: gamma-carboxylated glutamate residues in the Gla domain
Kd: 0.35 nM
